Measured values from PMC4852450, “SepG coordinates sporulation-specific cell division and nucleoid organization in Streptomyces coelicolor” (Open Biology, 2016).

Assays:
FtsZ–mCherry = target: T1, FtsZ–mCherry (S. coelicolor, UniProt P45500 1-399); assay: FRET or BRET; acceptor photobleaching in living S. coelicolor M145 hyphae; donor eGFP, acceptor mCherry; post-bleach donor intensity relative to the pre-bleach intensity (set to 1); settings: partners not purified
T1 construct: FtsZ, cell division scaffold protein of Streptomyces coelicolor; The FtsZ–mCherry construct is not described in the main text; source: S. coelicolor M145, expressed in living aerial hyphae
T1 sequence (looked up): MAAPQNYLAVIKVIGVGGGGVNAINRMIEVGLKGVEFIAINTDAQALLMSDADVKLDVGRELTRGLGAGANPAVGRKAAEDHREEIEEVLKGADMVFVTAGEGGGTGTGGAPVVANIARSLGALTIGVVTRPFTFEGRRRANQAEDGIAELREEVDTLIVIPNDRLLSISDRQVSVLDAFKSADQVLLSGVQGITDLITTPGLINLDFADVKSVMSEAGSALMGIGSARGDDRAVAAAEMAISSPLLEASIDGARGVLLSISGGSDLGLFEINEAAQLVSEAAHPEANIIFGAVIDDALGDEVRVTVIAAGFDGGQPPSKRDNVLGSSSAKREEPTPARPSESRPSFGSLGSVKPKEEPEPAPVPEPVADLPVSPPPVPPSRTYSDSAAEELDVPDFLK

SepG–mCherry = target: T2, SepG–mCherry (S. coelicolor, UniProt Q9S2X3 1-94); assay: as above; settings: partners not purified
T2 construct: SepG (YlmG), SCO2078, 94 aa membrane protein of Streptomyces coelicolor; called full-length sepG in the methods; egfp of pGWS755 replaced by the gene for mCherry; also called YlmG; SCO2078; source: S. coelicolor M145, expressed from the ftsZ promoter region (pGWS791), in living aerial hyphae; not shown: mCherry, C-terminal, kept
T2 sequence (looked up): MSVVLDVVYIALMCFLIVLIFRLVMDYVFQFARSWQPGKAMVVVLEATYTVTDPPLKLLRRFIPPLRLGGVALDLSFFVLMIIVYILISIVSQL

B1: SsgB–eGFP (natural protein, S. coelicolor, UniProt Q9L268 1-137, looked up)
chain: MNTTVSCELHLRLVVSSESSLPVPAGLRYDTADPYAVHATFHTGAEETVEWVFARDLLAEGLHRPTGTGDVRVWPSRSHGQGVVCIALSSPEGEALLEAPARALESFLKRTDAAVPPGTEHRHFDLDQELSHILAES
notes: SsgB, SCO1541, FtsZ-recruiting cell division protein of Streptomyces coelicolor; also called SCO1541; source: S. coelicolor M145, expressed in living aerial hyphae
donor fluorescence intensity after acceptor photobleaching, relative to before (FRET) (FtsZ–mCherry): 1.08
donor fluorescence intensity after acceptor photobleaching, relative to before (FRET) (SepG–mCherry): 1.05
